Data on 76 sequences can be found in the supplement of paper PMC7877785.

± gives the uncertainty stated by the source.

The data set is described as follows: self-splicing fitness, log relative to wild type (ln ratio); higher = more splicing; Tetrahymena group I intron in knt gene, E. coli kanamycin selection, DiMSum; sequences stand for … in CUCUCU…GGAGGGAAAAGUUAUCAGGCAUGCACCUGGUAGCUAGUCUUUAAACCAAUAGAUUGCAUCGGUUUAAAAGGCAAGACCGUCAAAUUGCGGGAAAGGGGUCAACAGCCGUUCAGUACCAAGUCUCAGGGGAAACUUUGAGAUGGCCUUGCAAAGGGUAUGGUAAUAAGCUGACGGACAUGGUCCUAACCACGCAGCCAAGUCCUAAGUCAACAGAUCUUCUGUUGAUAUGGAUGCAGUUCACAGACUAAAUGUCGGUCGGGGAAGAUGUAUUCUUCUCAUAAGAUAUAGUCGGACCUCUCCUUAAUGGGAGCUAGCGGAUGAAGUGAUGCAACACUGGAGCCGCUGGGAACUAAUUUGUAUGCGAAAGUAUAUUGAUUAGUUUUGGAGUACUCGUGGUCG
An outline of the steps:
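A randomised library covering all eight P1ex-region intron nucleotides was built with the intron in the knt kanamycin-resistance gene on pET-22b(+) and held in E. coli BL21(DE3). Cells were grown overnight at 37°C or 30°C on LB agar, with or without 25 μg/mL kanamycin, plus 100 μg/mL carbenicillin, 50 μM IPTG and 0.2% rhamnose, and pooled colonies were amplicon-sequenced on an Illumina HiSeq 2500. DiMSum fitness is the error-weighted combination of wild-type-normalised replicate fold changes, kanamycin versus none.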

As for ACUGAGCAAUAUUACGGAGA, the “self-splicing fitness (ln)” value (30 °C) was -3.46 ± 0.21 and the “self-splicing fitness (ln)” value (37 °C) was -3.08 ± 0.27.
The corresponding values for GUUAAGCAAUAUUACGGAGA are -3.29 ± 0.26 and -2.57 ± 0.25.
In the same order, the values of UAUGAGCAAUAUUACGCCCG are -2.23 ± 0.3 and 0.00889 ± 0.21.
In the same order, the values of GCGCAGCAAUAUUACGGAAG are -1.64 ± 0.12 and -1.66 ± 0.11.
As for UCAAAGCAAUAUUACGUUCG, the “self-splicing fitness (ln)” value (30 °C) was -1.17 ± 0.087 and the “self-splicing fitness (ln)” value (37 °C) is -0.407 ± 0.12.
In the same order, the values of ACCCAGCAAUAUUACGCAAU are -0.941 ± 0.053 and 0.344 ± 0.064.
In the case of CACUAGCAAUAUUACGACGC, the “self-splicing fitness (ln)” value was -2.52 ± 0.12 (30 °C) and -1.02 ± 0.13 (37 °C).
With UUAUAGCAAUAUUACGGUGU, the “self-splicing fitness (ln)” value is -3.63 ± 0.31 (30 °C) and -2.23 ± 0.3 (37 °C).
Turning to GAUCAGCAAUAUUACGUACG, the “self-splicing fitness (ln)” value by setting is: (30 °C) -1.5 ± 0.14; (37 °C) -0.586 ± 0.14.
In the same order, the values of GGCCAGCAAUAUUACGCAAG are -3.48 ± 0.25 and -3.15 ± 0.43.
For the sequence ACCGAGCAAUAUUACGCAGG, the “self-splicing fitness (ln)” value (30 °C) is -4.2 ± 0.47 and the “self-splicing fitness (ln)” value (37 °C) is -2.65 ± 0.41.
In the same order, the values of UGGAAGCAAUAUUACGCGUC are -0.409 ± 0.2 and -1.89 ± 0.27.
Regarding CUAUAGCAAUAUUACGAGAU, the “self-splicing fitness (ln)” value by setting is: (30 °C) -3.91 ± 0.42; (37 °C) 0.449 ± 0.18.
The corresponding values for AAGUAGCAAUAUUACGACUC are 0.858 ± 0.25 and 0.537 ± 0.24.
In the case of UGAUAGCAAUAUUACGGGUA, the “self-splicing fitness (ln)” value by setting is: (30 °C) -1.74 ± 0.12; (37 °C) -1.81 ± 0.14.
The corresponding values for UCUCAGCAAUAUUACGAGCG are -0.123 ± 0.091 and -0.0856 ± 0.1.
The corresponding values for GCAAAGCAAUAUUACGAAUU are -2.67 ± 0.15 and -0.942 ± 0.11.
As to UUACAGCAAUAUUACGAUGU, the “self-splicing fitness (ln)” value reads like this: (30 °C) -4.69 ± 0.39; (37 °C) -2.86 ± 0.23.
On to UAAGAGCAAUAUUACGUGAA, for which the “self-splicing fitness (ln)” value is, setting by setting: (30 °C) -1.72 ± 0.17; (37 °C) -1.74 ± 0.29.
As to CGUGAGCAAUAUUACGUGCC, the “self-splicing fitness (ln)” value (37 °C) is -1.78 ± 0.39.
With GCGAAGCAAUAUUACGCUUA, the “self-splicing fitness (ln)” value is, setting by setting: (30 °C) -2.1 ± 0.21; (37 °C) -0.759 ± 0.2.
In the same order, the values of CAUGAGCAAUAUUACGAUGU are -2.32 ± 0.19 and -2.72 ± 0.36.
In the same order, the values of ACCCAGCAAUAUUACGAUCA are -0.557 ± 0.11 and -0.56 ± 0.13.
Regarding CCCUAGCAAUAUUACGAGGC, the “self-splicing fitness (ln)” value (30 °C) is -4.41 ± 0.42 and the “self-splicing fitness (ln)” value (37 °C) was -4.06 ± 0.18.
The corresponding values for ACCUAGCAAUAUUACGCGCU are 0.00461 ± 0.076 and -0.0669 ± 0.096.
The corresponding values for CGAGAGCAAUAUUACGUACC are -3.27 ± 0.38 and -1.7 ± 0.41.
In the same order, the values of GCCUAGCAAUAUUACGACCC are -1.59 ± 0.21 and -0.272 ± 0.25.
Turning to AUCCAGCAAUAUUACGAGCG, the “self-splicing fitness (ln)” value runs as follows: (30 °C) -2.01 ± 0.11; (37 °C) -1.24 ± 0.12.
For the sequence UUAUAGCAAUAUUACGACAU, the “self-splicing fitness (ln)” value is -2.471 ± 0.021 (30 °C) and -1.55 ± 0.036 (37 °C).
In the same order, the values of UGAGAGCAAUAUUACGGUUA are -1.14 ± 0.23 and -1.11 ± 0.21.
Consider ACCGAGCAAUAUUACGGUAG, for which the “self-splicing fitness (ln)” value runs as follows: (30 °C) -3.75 ± 0.23; (37 °C) -2.73 ± 0.24.
With UCUAAGCAAUAUUACGCCGG, the “self-splicing fitness (ln)” value was -1.15 ± 0.13 (30 °C) and -0.186 ± 0.15 (37 °C).
The corresponding values for UCGUAGCAAUAUUACGGGGG are -3.07 ± 0.44 and -2 ± 0.47.
The corresponding values for UCCUAGCAAUAUUACGUGUA are -2.28 ± 0.18 and -1.09 ± 0.12.
For UAGUAGCAAUAUUACGAUGC, the “self-splicing fitness (ln)” value runs as follows: (30 °C) -4.61 ± 0.34; (37 °C) -2.56 ± 0.2.
In the same order, the values of UUUGAGCAAUAUUACGGCAA are -1.72 ± 0.18 and -0.742 ± 0.22.
In the same order, the values of AUGCAGCAAUAUUACGCCAA are -1.09 ± 0.12 and -0.608 ± 0.14.
The corresponding values for AACGAGCAAUAUUACGUCUC are -3.67 ± 0.29 and -3.03 ± 0.27.
On to CCCGAGCAAUAUUACGAAGA, for which, for the setting “30 °C”, the “self-splicing fitness (ln)” value is -2.86 ± 0.31.
As to CGCGAGCAAUAUUACGCUAG, the “self-splicing fitness (ln)” value (37 °C) is -1.39 ± 0.29.
Turning to UGGCAGCAAUAUUACGAAGG, the “self-splicing fitness (ln)” value is -2.93 ± 0.18 (30 °C) and -1.21 ± 0.23 (37 °C).
With CAUCAGCAAUAUUACGAGUG, the “self-splicing fitness (ln)” value reads like this: (30 °C) -2.26 ± 0.11; (37 °C) -0.515 ± 0.1.
In the same order, the values of AGAUAGCAAUAUUACGAUAG are -2.88 ± 0.21 and -2.31 ± 0.18.
In the same order, the values of AUCCAGCAAUAUUACGAAAC are -2.56 ± 0.11 and -1.47 ± 0.16.
In the same order, the values of GUGAAGCAAUAUUACGACGA are 0.184 ± 0.15 and 0.158 ± 0.22.
Take AGCCAGCAAUAUUACGCUCU: the “self-splicing fitness (ln)” value (30 °C) is -1.94 ± 0.1 and the “self-splicing fitness (ln)” value (37 °C) was -0.912 ± 0.13.
As for UUGCAGCAAUAUUACGUUCC, the “self-splicing fitness (ln)” value (37 °C) is -2.16 ± 0.27.
With CCGUAGCAAUAUUACGCCAU, the “self-splicing fitness (ln)” value is -3.26 ± 0.25 (30 °C) and -2.77 ± 0.36 (37 °C).
In the same order, the values of GAUAAGCAAUAUUACGGAAC are -3.85 ± 0.42 and -1.6 ± 0.18.
The corresponding values for GUCUAGCAAUAUUACGUUAA are -0.894 ± 0.097 and -0.331 ± 0.094.
As to CAUCAGCAAUAUUACGAAUC, the “self-splicing fitness (ln)” value runs as follows: (30 °C) -1.97 ± 0.13; (37 °C) -1.25 ± 0.12.
The corresponding values for CACCAGCAAUAUUACGCGGA are -2.85 ± 0.15 and -0.595 ± 0.088.
The corresponding values for UGAUAGCAAUAUUACGCGUA are -1.74 ± 0.13 and -0.96 ± 0.13.
In the same order, the values of GUCCAGCAAUAUUACGAAUG are -2.65 ± 0.17 and -1.31 ± 0.15.
As to GAACAGCAAUAUUACGGGUU, the “self-splicing fitness (ln)” value is -2.91 ± 0.1 (30 °C) and -2.04 ± 0.11 (37 °C).
The corresponding values for GGCUAGCAAUAUUACGUAGG are -1.96 ± 0.14 and -1.78 ± 0.13.
In the same order, the values of CGUCAGCAAUAUUACGCGCU are -0.602 ± 0.18 and -2.64 ± 0.32.
CUGAAGCAAUAUUACGAUCA: the “self-splicing fitness (ln)” value was -1.68 ± 0.13 (30 °C) and -1.53 ± 0.13 (37 °C).
In the same order, the values of CCGUAGCAAUAUUACGCGAG are -3.82 ± 0.24 and -2.76 ± 0.32.
As for UAGGAGCAAUAUUACGGGAG, the “self-splicing fitness (ln)” value was -2.69 ± 0.27 (30 °C) and -2.96 ± 0.36 (37 °C).
The corresponding values for UCCAAGCAAUAUUACGCGUG are -4.16 ± 0.21 and -2.53 ± 0.2.
In the same order, the values of GCUAAGCAAUAUUACGCUAU are -1.91 ± 0.14 and -2.08 ± 0.17.
As for GCUGAGCAAUAUUACGCACU, the “self-splicing fitness (ln)” value (30 °C) is -1.78 ± 0.17 and the “self-splicing fitness (ln)” value (37 °C) was -0.125 ± 0.2.
In the same order, the values of GAGGAGCAAUAUUACGGGUG are -3.55 ± 0.27 and -1.95 ± 0.32.
As to UCCAAGCAAUAUUACGGUGG, the “self-splicing fitness (ln)” value (30 °C) was -2.08 ± 0.079 and the “self-splicing fitness (ln)” value (37 °C) is -0.995 ± 0.096.
In the same order, the values of AUGGAGCAAUAUUACGGGGA are -3.29 ± 0.4 and -2.28 ± 0.32.
The corresponding values for GGGAAGCAAUAUUACGUCGA are -0.874 ± 0.12 and -0.739 ± 0.13.
In the same order, the values of CCUGAGCAAUAUUACGGCAA are -2.14 ± 0.22 and -2.42 ± 0.21.
As for GAAAAGCAAUAUUACGAUGU, the “self-splicing fitness (ln)” value by setting is: (30 °C) -1.07 ± 0.084; (37 °C) -0.404 ± 0.096.
With GACGAGCAAUAUUACGCUGA, the “self-splicing fitness (ln)” value runs as follows: (30 °C) -3.74 ± 0.35; (37 °C) -1.95 ± 0.24.
In the same order, the values of UUGCAGCAAUAUUACGUUUU are -3.97 ± 0.22 and -1.85 ± 0.13.
In the same order, the values of UAUGAGCAAUAUUACGUAGU are -3.67 ± 0.28 and -1.99 ± 0.21.
The corresponding values for UCUGAGCAAUAUUACGUUGU are -4.12 ± 0.21 and -1.96 ± 0.18.
As for AUCUAGCAAUAUUACGGUUA, the “self-splicing fitness (ln)” value is -0.746 ± 0.15 (30 °C) and -0.055 ± 0.12 (37 °C).
As for CGAGAGCAAUAUUACGUGCG, the “self-splicing fitness (ln)” value is -3.43 ± 0.29 (30 °C) and -1.8 ± 0.2 (37 °C).
In the same order, the values of UGUUAGCAAUAUUACGAACU are -0.445 ± 0.15 and 0.216 ± 0.18.
